Laboratory results from patent publication US11732048B2, “Anti-axl antagonistic antibodies” (BERGEN TEKNOLOGIOVERFØRING AS, priority 2016, dated 2023).
Entries after “also recorded” stand apart in the source; their conditions may differ.

B1: murine 10G5: mouse monoclonal anti-human Axl antibody from hybridoma WR-10G5-E5; VH SEQ ID NO: 28, VL SEQ ID NO: 29 (antibody, listed as Mus musculus, V domains shown)
VH: QVQLQQSGAELVRPGASVKLSCKASGYSFTDFYINWVRQRPGQGLEWIARIFPGGDNTYYNEKFKGKATLTAEESSSTAYIQLSSLTSEDSAVYFCARRGLYYAMDYWGQGISVTVSS
VL: DVLMTQTPLSLPVSLGDQASISCRSSQSLVHSNGIPYLHWYLQKPGQSPKLLIYRVSNRFSGVPDRFSGSGSGTDFTLKISRVEAEDLGVYFCSQGTHVPPTFGGGTKLEIK
modifications: (1)..(118) Mus musculus 10G5 VH domain; (1)..(112) Mus musculus 10G5 VL domain
B2: c10G5: chimeric (mouse variable/human constant) IgG1 antibody with the 10G5 VH and VL (antibody, V domains shown)
VH: B1 VH
VL: B1 VL

Tests used:
[1] = biological target: T1, human Axl (rhAxl-Fc chimera) (Homo sapiens, UniProt P30530); test: Biacore binding analysis on immobilised human Axl; details: 10 μg/mL in HBS-EP, 25° C.
T1 construct: Soluble recombinant antigens corresponding to the extracellular domains of members of the human TAM receptor family; Fc; purchased R&D Systems 154-AL
Protocol: All binding experiments were performed using Biacore 3000 instrument (GE Healthcare) at 25° C. Soluble recombinant antigens corresponding to the extracellular domains of members of the human TAM receptor family, Axl (rhAxl-Fc chimera; R&D Systems, Cat. no. 154-AL), Mer (rhMer-Fc chimera; R&D Systems, Cat. no. 891-MR) and Tyro3 (rhTyro3/Dtk-Fc chimera; R&D Systems, Cat. no. 859-DK) were immobilized on the surface of CM5 sensor chip using amine coupling at the surface density of 393.0, 303.6 and 364.0 resonance units (RU), respectively. The Biacore run was performed in an automatic mode using Binding analysis wizard. Samples containing MAb 10G5 at concentration 10 μg/mL in HBS-EP buffer (GE Healthcare) were injected over the surfaces with immobilized antigens at flow rate of 30 μL/min for 3 min (association) followed by 5 min dissociation.
The binding experiments were performed using Biacore 3000 instrument (GE Healthcare) at 25° C. The soluble recombinant antigens corresponding to human Axl (rhAxl-Fc chimera; R&D Systems, Cat. no. 154-AL), mouse Axl (rmAxl-Fc chimera; R&D Systems, R&D Systems; Cat. no. 854-AX) and human Tyro3 (rhTyro3/Dtk-Fc chimera; R&D Systems, Cat. no. 859-DK) were immobilized on the surface of CM5 sensor chip using amine coupling at the surface density of 1,308.0, 2,115.9 and 1,429.0 RU, respectively. The Biacore runs were performed in an automatic mode using Binding analysis wizard.
The sample containing MAb 10G5 or recombinant mouse (rm) Axl-ligand Gas6 (R&D Systems, Cat. no. 986-GS/CF) at concentration 10 μg/mL in HBS-EP buffer (GE Healthcare) was injected over the surfaces with immobilized antigens at flow rate of 30 μL/min for 3 min (association) followed by 5 min dissociation.
The sequence of Axl receptor from cynomolgus monkey (Macaca fascicularis; SEQ ID NO: 27) was retrieved from WO2009062690A1. Based on the sequence, recombinant extracellular domain of cyno-Axl was generated by transient expression in CHO cells as a fusion protein with human Fc. The recombinant cyno-Axl-Fc was purified to homogeneity using Protein A-Sepharose (GE Healthcare). The binding experiments were performed using Biacore 3000 instrument (GE Healthcare) at 25° C. The soluble recombinant antigens corresponding to human Axl (rhAxl-Fc chimera; R&D Systems, Cat. no. 154-AL) and cyno-Axl were immobilized on the surface of CM5 sensor chip using amine coupling at the surface density of 775 and 880 RU, respectively. The Biacore runs were performed in an automatic mode using Binding analysis wizard.
The sample containing MAb 10G5 or human Axl-specific MAb 5F11 (control) at concentration 10 μg/mL in HBS-EP buffer (GE Healthcare) was injected over the surfaces with immobilized antigens at flow rate of 30 μL/min for 3 min (association) followed by 5 min dissociation. […]

[2] = system: Axl-positive cells (MDA-MB-231); test: Flow cytometry binding to Axl-positive cells; set-up: species or system human
Protocol: Different concentrations of chimeric antibody was tested in flow cytometry for binding to triple-negative breast cancer cell line MDA-MB-231. The bound chimeric antibody was detected with APC-conjugated donkey F(ab′)2 fragments specific for either mouse IgG (H+L), 1:500 dilution, or human IgG (H+L), 1:300 dilution, respectively (both from Jackson ImmunoResearch). The cell staining was measured using Accuri C6 flow cytometer (BD Biosciences). MFI, geometric mean fluorescence intensity.
For flow cytometry, the adherent cells in culture were washed with PBS, detached by trypsin (0.25%) treatment for 1 min and hitting culture dish for full detachment. Trypsin was quenched by adding into the tissue flask the complete medium followed by washing the cells with PBS. […]
The purified chimeric antibodies (>95% purity) were analysed for binding to Axl-positive breast cancer cell line MDA-MB-231 in flow cytometry. […] The cell-bound antibodies were detected with APC-conjugated donkey anti-human or anti-mouse, respectively, IgG (H+L) F(ab′)2 fragments (Jackson ImmunoResearch). […]
For flow cytometry, the adherent cells in culture were washed with PBS, detached by treatment with trypsin (0.25%) for 1 min. […] The cell-bound antibodies were detected with APC-conjugated donkey anti-human IgG (H+L) F(ab′)2 fragments (Jackson ImmunoResearch Laboratories #709-136-149, 1:400 dilution). […]

Molecule	Binding to human Axl [1]	Binding to Axl+ cells in flow cytometry (clone selection) ([2]; Example 1)	Binding to Axl-positive MDA-MB-231 cells in flow cytometry ([2]; titration of antibody, APC-conjugated secondary)
B1	bind strongly; also recorded: specific binding; also recorded: strong and specific interaction	specific binding	
B2	binds immobilized Axl with profiles very similar to the binding profiles of the corresponding mouse antibody		Dose-dependent binding
